This note sets out measurements from the supplement of paper PMC9170038.

The subject of the series is MS2 coat protein. Put plainly: apparent KD of MS2 coat protein; designed switch direction (-1 OFF switch, 1 ON switch): -1; higher = weaker reporter binding. In outline:
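The apparent KD reported per design is the median over clusters of curve fits to normalised cluster fluorescence. The RNA switches were transcribed on Illumina chips by stalled E. coli RNA polymerase. SNAP-549-labelled MS2 coat protein was titrated from 0.7 or 1.5 nM, doubling up to 3 µM, in Tris-HCl pH 7.5 buffer containing KCl, MgCl2, BSA, DTT, tRNA and Tween-20, with no input, 200 uM small-molecule ligand, or an oligonucleotide input.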

Where [1] appears, read: Eterna round: R95, input ligand: microRNA oligo, concentration not stated.
The mark [2] stands for this setting: Eterna round: R95, input ligand: FMN 200 uM.
Setting [3] is: Eterna round: R95, input ligand: none.
[4] abbreviates: input ligand: microRNA oligo, concentration not stated.

As for “AAAGAACAUGAGGAUCACCCAUGUGAGGAUAUGCGAAAACCGCUGACAAACCAGACGGGCAGAAGGCAUAUGGU [Birima] (puzzle: Exclusion 1)”, under setting [1], the “apparent KD of MS2 coat protein” value came out at 56.2 nM.

Turning to “AAAGACCAAGUGAGGAUAUUAUGGACAAUGGAACAUGAGAAGGCACAUGAGGAUCACCCAUGUGAAUAGGGACG [Eternabot (Original) Solution 22] (Eterna round: R97, puzzle: Brourd's mod of Exclusion 4)”, the “apparent KD of MS2 coat protein” value is 33.5 nM (input ligand: FMN 200 uM) and 19.4 nM (input ligand: none).

For “AAAGAGCGAGGAUAUACGUAUCGGUGCGGCCCGCCGAUGUGACAUGAGGAUCACCCAUGUAGAAGGCGCAGAAA [Excls2-X] (puzzle: Exclusion 2)”, the “apparent KD of MS2 coat protein” value under setting [1] stood at 21.3 nM.

Turning to “AAAGAGUGAGGAUAUACAUGAGGAUCACCCAUGUACGUAAUACAAUACGGGUGACGACGUAGAAGGCAUUGCUG [Eternabot (Original) Solution 28] (Eterna round: R97, puzzle: Exclusion 3)”, the “apparent KD of MS2 coat protein” value (input ligand: FMN 200 uM) was 198 nM and the “apparent KD of MS2 coat protein” value (input ligand: none) turned out to be 781 nM.

Consider “AAAGGUGAGUAGGAUAUCCACGCACGAAUAAAGGGAGAAGGACUUACAUGAGGAUCACCCAUGUAAGGUGGUAA [Orte] (puzzle: Exclusion 6)”, for which the “apparent KD of MS2 coat protein” value reads like this: under setting [2], 17.1 nM; under setting [1], 14.3 nM; under setting [3], 13.8 nM.

Turning to “AAAGUACAUGAGGAUCACCCAUGUCAGGAUAUUGCCACAAGGCCCGGAGCCCAGAGCGCGAGAAGGGACAUUAG [Eternabot (Original) Solution 12] (Eterna round: R97, puzzle: Exclusion 1)”, the “apparent KD of MS2 coat protein” value reads like this: (input ligand: FMN 200 uM) 55.4 nM; (input ligand: none) 24 nM.

For “AAAUAACAAGCGAGAUCCUACAUGAGGAUCACCCAUGUGCUCGUCUUAAUAAGUACUAUCACGAAAGUGAUAGUACA [Mat - Sensor v3 - turn-off var 1 - Eli Mod - D67] (Eterna round: R96, puzzle: Sensor v3, turn-off variant 1)”, the “apparent KD of MS2 coat protein” value runs as follows: (input ligand: FMN 200 uM) 15.8 nM; under setting [4], 333 nM; (input ligand: none) 18.2 nM.

Consider “AAAUAACAAGCGAGAUCCUACAUGAGGAUCACCCAUGUGCUCGUCUUAAUAAGUACUAUCACGAAAGUGAUAGUACA [Mat - Sensor v3 - turn-off var 1 - Eli Mod - D67] (puzzle: Sensor v3, turn-off variant 1)”, for which the “apparent KD of MS2 coat protein” value came to 16.6 nM under setting [2], 471 nM under setting [1] and 16 nM under setting [3].

As to “AAAUAAGAAGGAUAUACAAAUUAAAAGGUCCUUAAGGCAAGACAUGAGGAUCACCCAUGUAGAAGGUCUGAAAA [Teati] (puzzle: Exclusion 2)”, the “apparent KD of MS2 coat protein” value reads like this: under setting [2], 39.5 nM; under setting [1], 23 nM; under setting [3], 22.6 nM.

Take “AAAUAAUCAGGAUAUACAUGAGGAUCACCCAUGUACCUCUUGUACGAGGGCCGCCCGUGUAGAAGGGAUGACAA [Arralara] (puzzle: Exclusion 3)”: the “apparent KD of MS2 coat protein” value runs as follows: under setting [2], 72.6 nM; under setting [1], 40.1 nM; under setting [3], 40 nM.

For the sequence “AAAUACAAGUAAAGAUCCUACAUGAGGAUCACCCAUGUGCUCGUCUUAUAAAGUACUAUCACGAAAGUGAUAGUACA [Sensor 3, v1 - 20] (puzzle: Sensor v3, turn-off variant 1)”, the “apparent KD of MS2 coat protein” value by setting is: under setting [2], 88.6 nM; under setting [1], 13.9 nM; under setting [3], 112 nM.

For the sequence “AAAUCACAUGAGGAUCACCCAUGUGAGGAUAUGAUACUAUGUACUUCGGUACAUAGUAUCAGAAGGCAUAUGGA [Ex1-3: 32] (Eterna round: R96, puzzle: Exclusion 1)”, the “apparent KD of MS2 coat protein” value runs as follows: (input ligand: FMN 200 uM) 39.4 nM; under setting [4], 20.6 nM; (input ligand: none) 23.7 nM.

Regarding “AAAUCACAUGAGGAUCACCCAUGUGAGGAUAUGAUACUAUGUACUUCGGUACAUAGUAUCAGAAGGCAUAUGGA [Ex1-3: 32] (puzzle: Exclusion 1)”, under setting [1], the “apparent KD of MS2 coat protein” value was 22.9 nM.

Regarding “AAAUCGAGACGGAGAUCCGACAUGAGGAUCACCCAUGUCUCGUAAGCUUUUUGCUCGUCUUAUACUCCUCUGUUCUC [Elimod 50 - Jieux - Sensor, turn-off variant 1] (Eterna round: R97, puzzle: Sensor, turn-off variant 1)”, the “apparent KD of MS2 coat protein” value reads like this: (input ligand: FMN 200 uM) 22.5 nM; (input ligand: none) 22.4 nM.

For “AAAUCGGAGGAGGAUAUGGUACAGGAAACGGUGCCAGAAGGUUUCACAUGAGGAUCACCCAUGUCAAAUAGCGA [EX6 #59] (Eterna round: R97, puzzle: Exclusion 6)”, the “apparent KD of MS2 coat protein” value runs as follows: (input ligand: FMN 200 uM) 21.3 nM; (input ligand: none) 20.3 nM.

“AAAUUAGCAAGUAGGUCCGACAUGAGGAUCACCCAUGUAAUCUAAAAUUACGCUGCACGAAAGUGCGCUCGUCUUAG [Sensor-V1 #12] (Eterna round: R97, puzzle: Sensor, turn-off variant 1)”: the “apparent KD of MS2 coat protein” value by setting is: (input ligand: FMN 200 uM) 439 nM; (input ligand: none) 385 nM.

Regarding “AAAUUAGCAAGUAGGUCCGACAUGAGGAUCACCCAUGUUAUCUGAAAUAACGCAGCAUGAUUGUGAGCUCGUCUUAG [Sensor-V1 #6] (Eterna round: R97, puzzle: Sensor, turn-off variant 1)”, the “apparent KD of MS2 coat protein” value is, setting by setting: (input ligand: FMN 200 uM) 80.8 nM; (input ligand: none) 105 nM.

As to “AACAAACAUGAGGAUCACCCAUGUCAGGAUAUGGCGGCUAGUGUGCCACCGUACACUACCAGAAGGGACUGGGU [Diedtiis] (puzzle: Exclusion 1)”, the “apparent KD of MS2 coat protein” value under setting [1] was 111 nM.

“AACACACAUGAGGAUCACCCAUGUGAGGAUAUCGUCGAGGUUGUAAUGCCAACCGUGACGAGAAGGCACUUGGG [Exclusion 1 (Mod 3.1 solution 40 by Eternabot)] (Eterna round: R97, puzzle: Exclusion 1)”: the “apparent KD of MS2 coat protein” value is, setting by setting: (input ligand: FMN 200 uM) 44.4 nM; (input ligand: none) 282 nM.

With “AACAGGUCAGGAUAUACAUGAGGAUCACCCAUGUAGACUUCUGGUCUACCGAGACCGUGUAGAAGGGACCUGAA [Exclusion 3 (MOD3 of #98 Marzena11)] (Eterna round: R97, puzzle: Exclusion 3)”, the “apparent KD of MS2 coat protein” value is, setting by setting: (input ligand: FMN 200 uM) 104 nM; (input ligand: none) 35.7 nM.

“AACAGUACAGGAUAUACAUGAGGAUCACCCAUGUGAGAUUUAAGUGGCGUACCACAAAGUAGAAGGGUACUGGA [JL Maslow Revisted mod 5] (Eterna round: R96, puzzle: Exclusion 3)”: the “apparent KD of MS2 coat protein” value is, setting by setting: (input ligand: FMN 200 uM) 230 nM; under setting [4], 29.6 nM; (input ligand: none) 37.3 nM.

Consider “AACAUGGCAGGAUAUUGAAAAUUGCACUUGAGGAUCACCCAAGUGGUUCUGCGGGCGAAGUAAGAAGGGCCUAAAA [Xeraabi] (Eterna round: R97, puzzle: Exclusion 5)”, for which the “apparent KD of MS2 coat protein” value reads like this: (input ligand: FMN 200 uM) 232 nM; (input ligand: none) 27.3 nM.

On to “AACCAACAUGAGGAUCACCCAUGUGAGGAUAUAGCUAACGACCAGACCUGGAAUGUUGUUAGAAGGUGCAGGGU [Eternabot (Original) Solution 4] (Eterna round: R97, puzzle: Exclusion 1)”, for which the “apparent KD of MS2 coat protein” value reads like this: (input ligand: FMN 200 uM) 44.4 nM; (input ligand: none) 36.2 nM.

Regarding “AACCAGCGAGGAUAUCGUUCGGAUAACAUGAGGAUCACCCAUGUGAGUCGUGUUUACGAACGAGAAGGCGCGACUC [Cequus] (Eterna round: R97, puzzle: Exclusion 5)”, the “apparent KD of MS2 coat protein” value is, setting by setting: (input ligand: FMN 200 uM) 218 nM; (input ligand: none) 798 nM.

For “AACCAGCGAGGAUAUGCUUGAGCUUGUUCUGGUUAUAAUCGACUUGAGGAUCACCCAAGUAGAAGGUGCUGGCG [EX2 #57] (Eterna round: R97, puzzle: Exclusion 2)”, the “apparent KD of MS2 coat protein” value (input ligand: FMN 200 uM) amounted to 42.6 nM and the “apparent KD of MS2 coat protein” value (input ligand: none) came to 20 nM.

With “AACCCUGUAGGAUAUCAGGGACUACACAUGAGGAUCACCCAUGUGACCUCAACCUAGUGUUGAGAAGGACAGGUAU [Eternabot (Original) Solution 22] (Eterna round: R97, puzzle: Exclusion 5)”, the “apparent KD of MS2 coat protein” value runs as follows: (input ligand: FMN 200 uM) 50.9 nM; (input ligand: none) 49.1 nM.

As for “AACCGCGGAGGAUAUACACGGUGAUACUGAACUCCGGCACGACAUGAGGAUCACCCAUGUAGAAGGCCGAAUAU [EX2 B.13] (Eterna round: R97, puzzle: Exclusion 2)”, the “apparent KD of MS2 coat protein” value worked out at 151 nM (input ligand: FMN 200 uM) and 21.3 nM (input ligand: none).

“AACCUGAGGCAAAGCUUUAGGUGUACAUGAGGAUCACCCAUGUAGGAUAUGGUAGGCAAAGCUUACCAGAAGGACAUUAUGAUG [Mat - Exclusion NG 3 - Mod of JL - D51] (Eterna round: R96, puzzle: Exclusion NG 3)”: the “apparent KD of MS2 coat protein” value reads like this: (input ligand: FMN 200 uM) 104 nM; under setting [4], 49.5 nM; (input ligand: none) 62.9 nM.

On to “AACCUGAGGCAAAGCUUUAGGUGUACAUGAGGAUCACCCAUGUAGGAUAUGGUAGGCUUUGCUUACCAGAAGGACAUAAUGAUG [Mat - Exclusion NG 3 - Mod of JL - D46] (Eterna round: R96, puzzle: Exclusion NG 3)”, for which the “apparent KD of MS2 coat protein” value (input ligand: FMN 200 uM) was determined as 92.2 nM, the “apparent KD of MS2 coat protein” value under setting [4] turned out to be 42 nM and the “apparent KD of MS2 coat protein” value (input ligand: none) is 53.3 nM.

For the sequence “AACUAGGCAGGAUAUACAUGAGGAUCACCCAUGUGCCGAUACAAAGGGACUAACAGAGGUAGAAGGGCCUAGAA [ChP 13.04.2015 #1] (puzzle: Exclusion 3)”, the “apparent KD of MS2 coat protein” value is, setting by setting: under setting [2], 100 nM; under setting [1], 36.2 nM; under setting [3], 47.8 nM.

Take “AACUCACAUGAGGAUCACCCAUGUGAGGAUAUGAUACUAUGUACUUCGGUACAUAGUAUCAGAAGGCAUGUGGA [Ex1-3: 90] (puzzle: Exclusion 1)”: under setting [1], the “apparent KD of MS2 coat protein” value was 12.9 nM.
